# Source: patent US20050153310A1 (PROMEGA, published 2005)
# B1: FRB (rapamycin binding protein) (other)
# chain: ILWHEMWHEGLEEASRLYFGERNVKGMFEVLEPLHAMMERGPQTLKETSFNQAYGRDLMEAQEWCRKYMKSGNVKDLTQAWDLYYHVFRRISK
# Target: FKBP (FK506 binding protein) (UniProt P62942 2-108)
# Test: cell-based or functional assay
# Chain of FKBP (FK506 binding protein) (P62942 2-108): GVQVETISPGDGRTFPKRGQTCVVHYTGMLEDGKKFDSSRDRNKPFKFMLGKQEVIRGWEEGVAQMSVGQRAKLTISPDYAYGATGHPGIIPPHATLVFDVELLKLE
binder,measurement,value
B1,"fold decrease in relative luminescence of the in vitro translated double fusion FRB-luc2-FKBP with 0.2 uM rapamycin, compared to the control reactions",20 fold
same,"luminescent signal of D293 cells transfected with FRB-Luc2-FKBP under the CMV promoter, with rapamycin",≤ 2 fold
same,"luminescent signal of D293 cells transfected with FRB-Luc2-FKBP under the TK promoter, with rapamycin",≤ 5 fold
